In test [1] the target is T1, SPN secreted by S. pyogenes JRS4 (culture supernatant) (Streptococcus pyogenes strain JRS4 …).
T1 chain: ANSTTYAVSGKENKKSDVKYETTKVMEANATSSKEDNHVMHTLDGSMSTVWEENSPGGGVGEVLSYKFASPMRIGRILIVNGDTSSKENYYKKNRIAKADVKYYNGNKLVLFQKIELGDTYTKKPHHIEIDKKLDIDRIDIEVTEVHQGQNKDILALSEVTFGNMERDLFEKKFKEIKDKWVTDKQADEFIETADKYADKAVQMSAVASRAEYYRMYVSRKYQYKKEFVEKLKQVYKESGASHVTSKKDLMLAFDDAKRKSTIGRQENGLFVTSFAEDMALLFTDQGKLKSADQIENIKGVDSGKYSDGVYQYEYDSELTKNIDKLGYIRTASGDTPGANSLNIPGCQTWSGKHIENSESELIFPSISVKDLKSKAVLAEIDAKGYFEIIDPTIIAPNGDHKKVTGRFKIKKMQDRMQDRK
The experiment in a line: enzyme inhibition kinetics (competitive model); apparent constant; purified IFS (up to 2.3 nM) with SPN from JRS4 culture supernatant (0.125 U/ml) and varying beta-NAD+ (up to 1.2 mM) in PBS at 37 C; fluorescence of residual beta-NAD+; simultaneous fit. Conditions: one partner purified.

The target in test [2] is 6X-His-tagged SPN (SPN-H) expressed from pMAM3.18 (Streptococcus pyogenes strain JRS4). The experiment in a line: SEC + other: densitometry of SDS-PAGE; SPN-IFS complex assembled in vivo and purified from the cytoplasm of E. coli TOP10(pMAM3.18); Superdex 75 HR 10/30, 20 mM Tris pH 8.5, 100 mM NaCl; peak fractions on Coomassie-stained SDS-PAGE compared with known concentrations of purified SPN and IFS.

Among the data in publication PMC1298937, “A Novel Endogenous Inhibitor of the Secreted Streptococcal NAD-Glycohydrolase” (PLoS Pathogens, 2005) are Ki and stoichiometry N values, retold here.

B1: Immunity factor for SPN (IFS) with C-terminal c-myc and 6X-His tags (IFS-H), expressed from pMAM3.19 (natural protein)
chain: MYKVPKGLEHYQKMFQKEVTVNDLKKYLIGSDKEYRITRRDSYMGDISDPEVILEYGVYPAFIKGYTQLKANIEEALLEMSNSGQALDIYQAVQTLNAENMLLNYYESLPFYLNRQSILANITKALKDAHIREAMAHYKLGEFAHYQDTMLDMVERTIETF
notes: source: E. coli TOP10(pMAM3.19), arabinose-induced: cytoplasmic extract; purified (TALON, Resource Q); not shown: c-myc, C-terminal, kept; 6X-His, C-terminal, kept
For B1, the Ki in test [1] was 2 nM. For the same molecule, the stoichiometry N in test [2] is 1.
